Measurements published in patent US20250277003A1.

Columns and labels:
[1] = biological target: SARS-CoV-2 spike receptor-binding domain, wildtype (CoV-2 RBD WT) (SARS-CoV-2) (UniProt P0DTC2); assay: bead flow cytometry
[2] = biological target: BatCoV Anlong-103 spike RBD (BatCoV Anlong-103); assay: bead flow cytometry

mAb CR3022 (antibody) showed a gMFI [1] of 25800 and a gMFI [2] of 12900.
Substance mAb S309 (antibody) has a gMFI [1] of 8370 and a gMFI [2] of 69.3.
